The domain aggregation screens of Martell et al. (2025)

Experiment: soluble fraction after stress (log2 fold change); higher = more stays soluble; pooled small domains, quantitative proteomics
Settings: stress: 75 degC
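Also: 20 min heating vs room temperature control held 20 min.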

Row | Sequence | soluble fraction (log2)
1 | HMIPDLPAIGENLYRERKRQQLSMAELAAASGISKAMLSQIEADKVNPTIATLWKIAHALHVDLESLISGG | -0.965
2 | HMIPDPEKVMFDGGIRLLTQAGITEGKARSILGKWKRDHETERIIAALGAAQREGAIEPVSFIERVLRN | -0.24
3 | HMIPKIIDITDLNEEVREVIEEYMKRKRVEKYHIYQDSKGQIFIISGSAIIRYDSKLNNLYYL | -2.45
4 | HMIPLKTEAIPVSYGDGAAIIRSLAVAFPSRTFHWDAQTRRIIGQALDEEWQVIRSLVWQLDIP | -1.83
5 | HMIPLSDEETILLKLLEATETHLDALIRGSQLSAAKVSVVLMGMEMKRLVKRLPGQMYQRWD | -2.13
6 | HMIPRNLEDLVRENQIGLVILKIVEIIGEDNIRDLDPETIYFINRILNELNLKKIRNNILSEALPPR | -1.36
7 | HMIPSEQYNTALTEIGLSTRAHNSLRRAGIMTLGQLIEKTRDGLPPLPGFGDKSQVEVQDLLTGLGYPI | -0.187
8 | HMIPSGISEHPISKLPLSMSIIHRLELAGIKTIGDITGENFSRLQEIPRIGKVTAKRILEAIQSYSEQLP | -0.401
9 | HMIPYQDPLPKGAEESLLSKYPGFEITGVHFVNDTNFIGYKVRLERGEDREEISLDVNGKFL | -0.308
10 | HMIQADFIPQVEQRLADRGLSMSGDVMAAFLDRAGYGLRHVSNEIEKLSLYLGDRKKVTVEDVVQMVAPVR | -0.381
11 | HMIQAGDLVFIWNPKKGDNFLIKVTPGMSQGTHFGQIKHTELMEREYGEGIVTPKGEVYYLLRPTLAGYTR | -1.21
12 | HMIQIGEQIRYYRTKIGISQEALALMADINPAYIGQIERGIKSPTVNTIKKIANAMGINLHTLFT | -2.94
13 | HMIQKTHPALEIVKEYFSSQAASEFEAERFFNYYTSNGWLIGGKTKMKDWQAAARNWILNTAK | -0.999
14 | HMIQNEITLMLQVNGKLRGQIQVPSDASKEQIEQLAKDSEAAQKALAGASPKKIIVVPGRLVNIV | -0.792
15 | HMIQQFTYAFAKDKGVVVLPGRDVLTLGMRAGADPLVLLEARRALGSSFELEPLDRDTYERTLADVFTADA | -1.39
16 | HMIQRLNVNTEVLSTYIRNSNTPIEYLRQKLPNIDKFLKGELEPTFNQVYALSKLINIPTGLLLLKEPIS | -1.86
17 | HMIQSEQIPFSKFLKEVDSGRVVQVEIQGNNINGVLSDGSKFKTYSPNYPELVGKLSDKGVSIVASPV | 0.091
18 | HMIQTKNVTFTINEKTKIANIPLKSLKILSQEDNRITLSYEKNSLKIDEIISYFSDKNINILDITTD | -1.59
19 | HMIQYRKILELHFKDISQRTISTSVGSSRNTVSDVIKRSEQLGLERLTDNMNNRWLEEFLFPEKQ | -4.15
20 | HMIRALVPGQTLHGEIVGRNGGEVQVRLAEDMILNARVDQNIYLELGKDLTFEVKNNGATLTLSPL | -0.42
21 | HMIRDTTMYPVSVNGKKRYEWTVSKSISDDELKQQVLELEEIKKWIEGHEIKKLIFVPGRAINIV | -0.696
22 | HMIRDVDYNTFVSMVQEGKVGQVEIQEQNNRILFTDKDERTVYKTAMVPDSDLISRLLEAGVSTS | 0.359
23 | HMIRTGEVVTGKVINVKEDQIILNIGFKSDGIITRNEYTNDNSLDLRTVVHEGDEIEAKVLKVNDGEGQVV | 0.401
24 | HMIRVGRPQYKRGEFVSFDFDNGRKKTEMYGRVDVIDSYGTFGQGREVSYDIRASDGILYKHIPESSVYGF | -1.17
25 | HMIRVVSIEDQPWFVAADVLKSLGMPTDKGVGKYLLALGSDERMLTTHGQIGGKGMAVTTIISESGLY | -0.67
26 | HMISDAEWKIMNVLWEEQPRTMMQITKELQEETGWTKHTVMTYLKRMESKKIIHYVEGEKAKLYYS | -0.133

Row | Sequence | soluble fraction (log2)
27 | HMISDDLYQAVLDFTLTQDTISISRLQQNFNLGWPRARQLYDQLMQNGIIEPPDEANSAKGAVVIANKRG | 0.697
28 | HMISIKEAVFPFSRFPGVDTLLGPEMKSTGEVMGLADNFGHAYAKSQIASGSKLPESGTLFVSVKNSD | -0.467
29 | HMISKRFQIDEENAHKRIDIFLSHEFDSISRGIVQELIVKGEVLVNDKVTKRNYKLKTGDLVDITINL | -2.98
30 | HMITDQQKEQLSSLLKQAEAALAKAAANDQVLAAHKDEAVELLKSTSATSADAADLINELTELLKPYQ | 0.973
31 | HMITEDQVIARIGLLSPAEKSLLKDKLERFRRLTLSEQQHLREFHSALDNHDKRTDLLNVLRKYNDWVNQL | -1.99
32 | HMITEQEFQRVAAYVKNKAGINLNEKKVLVQGRLDSYMQRKGYSSYDEFMDRVERFPTGPEAEDLMNALTT | -0.0412
33 | HMITFRINQQSQVGLRLDKFIVQQMPDYSRTRIQSWIKTKNILVNGEGKKSGYALEFDDLVEVTIPE | -4.81
34 | HMITGREMDVLEALWSSEKPLVASDIPKMKPSLSISSVQLALRNLVKKKLVEVADIVYSGTVLSRSYRP | 0.0724
35 | HMITIDNYFNKEKELDFSSFPEALRKGHGFVSKATAHGSSWVSYHSSDAIKKTIDIYLSKLNEYLSNNAKA | -1.08
36 | HMITLYDLLGVSKTASSQEIKTAFKKKALQYHPDKNDGNPDKEEIFKRINMAYQVLGQPQSRANYDFSITP | -0.483
37 | HMITNMIIIMKPNASEEAIEKVKHLIESKGLQAHLSKGDEVTIVGVVGDKTRLHDSNIEISEGVDKIVNVT | 0.497
38 | HMITPAGVPPALLPVFDQFTLPDGTLRRGAVAAALRALYGPDAPQSGKRYQMEYDRVMAWHSQYFTSLH | -0.759
39 | HMITPKQTAETLGIATSTLRRWASEFEPFLSLRTGVKRTYTTDDITTLKRVKDLFAQGLKTEQVREAL | -0.287
40 | HMITPNQAAVTLKVSTSTLRRWSSDFEPFLSPRKGVKRLYTIEDIATLKRIQGLYKQGMNTAQVQA | -2.25
41 | HMITQQEFQQKLEALLSRAEAESFHIKKEEAESFFSGDELTGEQMKLVFDYLLSKKIIVEGYLK | -0.918
42 | HMITTEEVLNRIRKKVDHPATIRELQKALSIADDDRHRFRRRIRTLVASGALVRIRGNRYGLPSK | -0.213
43 | HMITTWAGKATTDVYGRVDANPKADAVLVIKTGWTVQVVGSKTAPDGGTWYKLIYNGKTMYANSKFIVK | -3.65
44 | HMITVEAPMPGKVLSVNVKAGDKVEAGDVLLILEAMKMQNEIMAPEDGTVSDVRVSAGDTVATGDVMVV | 0.0808
45 | HMIVIMAKESSPAELEGVKNRIESHPGLRPQVFDGVERIVVGVLGSIPPDLKDEIELLPGVIEVVPISK | -0.177
46 | HMIVVLKHGVTEQQMRNLIAWFKDQGVDVHVSRGIYQTVLGLVGDTSDIDVDLLRMLDIVDAVKRIT | -2.1
47 | HMIVVMAADSSREDLDLVQGRIEARGLRAQISQGVERIVIGVLGSLPPDLKDEMELLPGVREVLVIS | -1.57
48 | HMIYGNGVTDLKDLANGATIIIPADDSNETRALFLLQQEGLIKLPDDADAAKGVSTLDIVDGGGWVTSM | 0.0362
49 | HMIYKLIADRLKNRINSDEFEVGDALPSEKALAGELEVSVMTIRKALTLLESEKLIVKRHGSGSYVARKSN | -1.77
50 | HMIYRTTSVPIDNISTQKFNLQEGWIEMNKNEVEDFIRQKNLELVVTDSNVMLDKFALNGDPNKFKVFKY | 0.0778
51 | HMKADTSPEAQKKIIAAFEPYSVNKDQIEKLIQRRIDSITPAQVIRLRKILASLKDGMSSPEDWFE | -0.195
52 | HMKAERLLALLTILLSGKRVSARWLSEELEVSERTVYRDVEALSEAGFPVYATTGRDGGFSLIDGF | -2.01

Row | Sequence | soluble fraction (log2)
53 | HMKAKPTLLTPYEERLKGWLETDSRRPKRDRRTGLALFAKLQQEGFTGSYTRVTEYIRRWRDSGG | -2.87
54 | HMKALPSAEDVALARESGRVLSTVLQTRAETQQIDFHDDKGAVRSVTLPTTALRLLLDVLTEIGQGNAV | -0.106
55 | HMKALRNQDVVVGKPLAMAVYDQHGVLLLGRGHVVISESQRQQLLERGFSIDAEQLGRLRAAIEATQRV | -1.17
56 | HMKALYHQLVDLLKKRMESGMIPHDKLPSERELTAQYGVSRTTVRLALQELENTGYIYRRHGKGTFVSDI | -2.85
57 | HMKANIGDQVFTQLKDQIINGEWRPGDRIPSEAQLIQLFGVSRGTVRQAVQKLAGEGLIVTRHGEGSFVQG | -0.0329
58 | HMKAQLQHIIGSNIKLARNTQGYTQEGLAERAEISVEHLKQVERGKKMLSVESLVNVANALQVSVDSLV | 0.0141
59 | HMKAQVKSVLDDIPGIGQTRRKALMRYFKSLEKIREASVEELKEADAMNERAAQSVYAFFHK | -0.775
60 | HMKAQVKSVLDEIPGVGPTRRKALMKHFTSIEEIKQAEFETLLEAEGMNRAAAQSVYDFFHN | -0.232
61 | HMKDESQLVGAEGKAVTPLRPTGVALIGEKRLDVLTEGEFIPRNSDIIVSRVEGNKIIVKLKN | 0.00394
62 | HMKDHLRFEILSFAGDLRNGVVKTRQEFETIFAFYDKYEEIITALKVHNGYVDSEFDFIKEKFKELKSK | -2.78
63 | HMKDLQAISERMEEIISFAKANDNEISLFIVQDIIKNKKTGIDEDLLNMALYQIKEQGIKVLPA | -0.176
64 | HMKDSIQIPNVVGMTIKDAQSQYGKSFSIIEQNRTESTKPAGTILEQTPAGGDTVSKRDNIIIRVVVSLG | -1.45
65 | HMKDSKSALQEYALERKMGLPVYEVVDRSGPDHAPQFVIAVSLGEWRLEAKGASKRQAEQQAASLMLEEI | -0.174
66 | HMKDYTIDDIINSKVEHPLGGYQSRFKVGEYEVSVVGGRQTNHGDFIHTFELAIFDKNNNFLRNLTPVTID | 0.0559
67 | HMKEATTSPLDGIPGIGSKRKKALLSHFGSARSVARADIPDLMRVDGISRQVAETIYGWFHN | -0.417
68 | HMKEDFPLLEQLRYTGEGADVTGTAEKMESIQALRSAADSGGFRATLGDIQQIPGGGLRFTLSLRGSR | -0.0408
69 | HMKEDNPIVLINLQAKEGEWVFKGTGLPYVGKYHQHKNGEYMIGIGVLNLNHELKPDEIIIPNPNK | -0.362
70 | HMKEEDYEVFMRLINVRGIGPKSALNILGVISGQEMIQAIENDDIKRLKSLPGIGAKTAGQIVLDLKGKFV | -0.746
71 | HMKEFIPPVLDDVLKFFSGSLLPDWENQGRLFFSHYNSQGWRKGTGVQVTDWDSLANKWILDEKIKRDARS | -0.489
72 | HMKEGTIPPVVNRTLSDAEFVLKSYGYELGRVSEQHSDMPKDIVIKQSPEAGTVADPGTRVDVVVSIGKA | 0.485
73 | HMKEHDTLALRLTAILRKLNDGEKLVPRELAEEFNVGIRTIQRDLTERLSFLDLEKTNGAYSLPTRNL | -0.843
74 | HMKEIIFRGIGEFILDYKSLVIEFLNKNNYANLSMDAPVDEVNKAVANNMLNEDFVTELLLFQRRVE | -4.14
75 | HMKEILLITGKGLHSGQDDVYKSAQLSKLRYSVPEFIKSNLEISQLILSVETPLQKDGGDGALLIK | -0.0322
76 | HMKEILVGVEPLSKKQIIIKKGIKGRSDYIIFEKKNYGLPENLKPEEVSIEIALKIIDEKKKRKA | -1.48
